Results published in paper PMC11358308 (2024).
Changes are numbered by the printed parent chain. In names and notes the source's numbering stands.

T1: human B-cell maturation antigen (BCMA), extracellular domain (human, UniProt Q02223 1-54)
T1 chain: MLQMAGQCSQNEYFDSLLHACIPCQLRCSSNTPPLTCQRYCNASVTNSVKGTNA

B1: J22.9-FSY, humanized and CDR-optimized IgG (antibody, V domains shown)
VH: EVQLVESGGGLVQPGGSLRLSCAASGFTFSRYWFSWVRQAPGKGLVWVGEINPSSSTINYAPSLKDKFTISRDNAKNTLYLQMNSLRAEDTAVYYCASLYYDYGDAYDYWGQGTLVTVSS
VL: EIVMTQSPATLSVSPGERATLSCKASQSVESNVAWYQQKPGQAPRALIYSASLRFSGIPARFSGSGSGTEFTLTISSLQSEDFAVYYCQQYNNYPLTFGAGTKLELK
B2: J22.9-ISY, humanized and CDR-optimized IgG (antibody, V domains shown)
VH: B1 VH with F34I
VL: B1 VL
B3: J22.9-H, humanized IgG (all humanizing substitutions in VH and VL except A46L in VL) (antibody, V domains shown)
VH: B1 VH with F34M, S54D, Y107M
VL: B1 VL with E30D
B4: J22.9-xi, chimaeric mouse/human IgG (antibody, V domains shown)
VH: QVQLQQSGGGLVQPGGSLKLSCAASGIDFSRYWMSWVRRAPGKGLEWIGEINPDSSTINYAPSLKDKFIISRDNAKNTLYLQMSKVRSEDTALYYCASLYYDYGDAMDYWGQGTSVTVSS
VL: DIVMTQSQRFMTTSVGDRVSVTCKASQSVDSNVAWYQQKPRQSPKALIFSASLRFSGVPARFTGSGSGTDFTLTISNLQSEDLAEYFCQQYNNYPLTFGAGTKLELK

Key:
cynomolgus BCMA = cynomolgus BCMA (cynomolgus monkey); test: SPR
[1] = molecular target: T1, human B-cell maturation antigen (BCMA), …; test: SPR

cynomolgus BCMA (cynomolgus monkey), sequence (chain, as listed by the source): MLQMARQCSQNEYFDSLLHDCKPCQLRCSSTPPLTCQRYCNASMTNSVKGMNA

Binder | Kd (cynomolgus BCMA) | Kd [1]
B1 | 20 nM | 2.2 nM
B2 | 17 nM | 2 nM
B3 | 200 nM | 
B4 | 2.7 nM | 
